Results reported in paper doi:10.1101/2023.11.12.566739.

T1: α-synCas (synthetic ancestral Cas12a-like nuclease, ASR) (synthetic construct (ancestral …, UniProt PDB:8QWE_1 1-1261))
T1 chain: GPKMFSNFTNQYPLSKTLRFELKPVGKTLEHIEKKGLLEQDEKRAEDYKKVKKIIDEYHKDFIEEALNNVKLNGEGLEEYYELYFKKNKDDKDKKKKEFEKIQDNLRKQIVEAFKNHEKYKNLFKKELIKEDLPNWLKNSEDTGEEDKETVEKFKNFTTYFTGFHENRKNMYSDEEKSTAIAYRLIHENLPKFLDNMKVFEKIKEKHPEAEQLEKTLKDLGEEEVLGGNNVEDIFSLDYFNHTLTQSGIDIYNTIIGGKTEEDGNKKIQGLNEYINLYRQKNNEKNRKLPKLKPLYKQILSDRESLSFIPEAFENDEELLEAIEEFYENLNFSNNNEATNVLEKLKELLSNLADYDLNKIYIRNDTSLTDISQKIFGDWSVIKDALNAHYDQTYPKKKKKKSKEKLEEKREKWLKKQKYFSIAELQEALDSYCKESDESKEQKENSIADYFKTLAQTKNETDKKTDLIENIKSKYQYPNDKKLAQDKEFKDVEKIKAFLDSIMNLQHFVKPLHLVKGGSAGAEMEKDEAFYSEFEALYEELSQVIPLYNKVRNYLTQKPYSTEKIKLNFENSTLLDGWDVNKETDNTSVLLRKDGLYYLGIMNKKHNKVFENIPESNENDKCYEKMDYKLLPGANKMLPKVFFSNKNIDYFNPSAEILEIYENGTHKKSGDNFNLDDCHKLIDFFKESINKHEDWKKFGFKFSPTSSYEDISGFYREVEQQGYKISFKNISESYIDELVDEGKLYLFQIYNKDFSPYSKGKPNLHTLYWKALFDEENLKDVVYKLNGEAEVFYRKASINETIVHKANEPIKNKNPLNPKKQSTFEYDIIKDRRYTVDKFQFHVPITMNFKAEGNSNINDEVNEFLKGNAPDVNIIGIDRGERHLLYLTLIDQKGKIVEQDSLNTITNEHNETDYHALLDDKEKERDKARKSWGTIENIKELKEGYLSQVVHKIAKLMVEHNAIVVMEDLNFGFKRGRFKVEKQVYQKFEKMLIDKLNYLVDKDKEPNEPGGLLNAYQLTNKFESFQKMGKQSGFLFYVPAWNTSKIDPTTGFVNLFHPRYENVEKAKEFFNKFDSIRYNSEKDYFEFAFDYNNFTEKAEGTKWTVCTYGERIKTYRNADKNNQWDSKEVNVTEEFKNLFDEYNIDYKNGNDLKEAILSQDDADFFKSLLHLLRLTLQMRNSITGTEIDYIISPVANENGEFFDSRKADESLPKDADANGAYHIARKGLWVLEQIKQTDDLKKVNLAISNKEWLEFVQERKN

B1: crRNA + target dsDNA (cis DNA), ternary complex (mixed)
RNA: AAUUUCUACUGUUGUAGAUUCCUAAGGCGUUACCCCAAU
DNA 1: CTAGCATATTTATCCTAAGGCGTTACCCCAATGGGAGGG
DNA 2: CCCTCCCATTGGGGTAACGCCTTAGGATAAATATGCTAG

Experiments:
[1] = biological target: T1, α-synCas (synthetic ancestral …); assay: cryo-EM
[2] = biological target: T1, α-synCas (synthetic ancestral …); assay: size exclusion chromatography

| Binder | binding result [1] | binding result [2] |
| --- | --- | --- |
| B1 | binds | – |
| AAUUUCUACUGUUGUAGAUUCCUAAGGCGUUACCCCAAU (structured_RNA) [crRNA (cryo-EM)] | – | binds |
